In publication PMC8213127:

Experiments:
[1] = target: SctV from Yersinia enterocolitica (Yersinia enterocolitica); assay: cryo-EM structure; purified full-length protein at 0.8-1 mg/ml in TBS with 0.01% LMNG; single particle analysis in Relion; C9 symmetry imposed for Vp-FlhA, D9 for Ye-SctV; only the cytoplasmic domain resolved
[2] = target: FlhA from the lateral flagella of Vibrio parahaemolyticus (Vibrio parahaemolyticus); assay: as above

Substance | stoichiometry N [1] | stoichiometry N [2]
SctV from Yersinia enterocolitica (natural protein) | 9 | 
FlhA from the lateral flagella of Vibrio parahaemolyticus (natural protein) |  | 9
